Source: article PMC4677358

Columns and labels:
[1] = target: RuvA (bound to Holliday junction DNA) (E. coli) (UniProt P0A809); experiment: single-molecule fluorescence imaging in zero mode waveguides (counting of Cy5 photobleaching steps); 400 nM RuvA with 40 nM biotinylated Cy3-Holliday junction DNA held by streptavidin in the nanoholes, unbound washed out; 400 nM Cy5-RuvB added; 20 mM HEPES-KOH pH 8.0, 10 mM MgCl2; 25 ± 2 °C; holes with a single DNA; step counts fitted for the 42% labeling ratio; 1 mM ADP
[2] = target: RuvA (bound to Holliday junction DNA) (E. coli) (UniProt P0A809); experiment: single-molecule fluorescence imaging in zero mode waveguides (counting of Cy5 photobleaching steps); 400 nM RuvA with 40 nM biotinylated Cy3-Holliday junction DNA held by streptavidin in the nanoholes, unbound washed out; 400 nM Cy5-RuvB added; 20 mM HEPES-KOH pH 8.0, 10 mM MgCl2; 25 ± 2 °C; holes with a single DNA; step counts fitted for the 42% labeling ratio; 1 mM ATPγS
[3] = target: RuvA (bound to Holliday junction DNA) (E. coli) (UniProt P0A809); experiment: single-molecule fluorescence imaging in zero mode waveguides (counting of Cy5 photobleaching steps); 400 nM RuvA with 40 nM biotinylated Cy3-Holliday junction DNA held by streptavidin in the nanoholes, unbound washed out; 400 nM Cy5-RuvB added; 20 mM HEPES-KOH pH 8.0, 10 mM MgCl2; 25 ± 2 °C; holes with a single DNA; step counts fitted for the 42% labeling ratio; no nucleotide
[4] = target: RuvA (bound to Holliday junction DNA) (E. coli) (UniProt P0A809); experiment: single-molecule fluorescence imaging in zero mode waveguides (counting of Cy5 photobleaching steps); 400 nM RuvA with 40 nM biotinylated Cy3-Holliday junction DNA held by streptavidin in the nanoholes, unbound washed out; 400 nM Cy5-RuvB added; 20 mM HEPES-KOH pH 8.0, 10 mM MgCl2; 25 ± 2 °C; holes with a single DNA; step counts fitted for the 42% labeling ratio; 0.5 mM ADP and 0.5 mM ATPγS
[5] = target: RuvA (bound to Holliday junction DNA) (E. coli) (UniProt P0A809)

UniProt P0A809, sequence (P0A809 whole entry): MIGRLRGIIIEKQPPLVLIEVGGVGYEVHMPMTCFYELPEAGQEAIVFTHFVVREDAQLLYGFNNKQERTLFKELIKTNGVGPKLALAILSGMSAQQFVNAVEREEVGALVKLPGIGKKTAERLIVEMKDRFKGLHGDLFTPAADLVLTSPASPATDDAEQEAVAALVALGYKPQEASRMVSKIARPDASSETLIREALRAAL
RuvB, sequence (P0A812 whole entry): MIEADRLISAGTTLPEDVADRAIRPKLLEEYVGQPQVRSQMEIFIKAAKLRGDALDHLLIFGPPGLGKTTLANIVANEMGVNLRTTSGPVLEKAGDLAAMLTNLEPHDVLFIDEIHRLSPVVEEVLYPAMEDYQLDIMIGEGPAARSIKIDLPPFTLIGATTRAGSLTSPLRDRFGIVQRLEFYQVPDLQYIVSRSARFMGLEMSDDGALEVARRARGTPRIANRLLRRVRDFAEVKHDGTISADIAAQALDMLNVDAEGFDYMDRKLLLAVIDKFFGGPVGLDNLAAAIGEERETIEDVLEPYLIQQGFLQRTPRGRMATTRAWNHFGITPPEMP

With “Cy5-labeled RuvB-S39C (from UniProt P0A812 1-336) (enzyme)” the % of Holliday junction DNA (with RuvA) that interacted with RuvB (fit, monomer model) [1] was 90%, the % of RuvA-Holliday junction DNA complexes with 0 RuvB dimers bound (fit, dimer model, Cy5 at random) [1] was 11% and the % of RuvA-Holliday junction DNA complexes with 0 RuvB dimers bound (fit, dimer model, one Cy5 per labelled dimer) [1] was 26%. For the same substance, the % of RuvA-Holliday junction DNA complexes with 0 RuvBs bound (fit, monomer model) [1] was 10%, the % of RuvA-Holliday junction DNA complexes with 1 RuvB dimers bound (fit, dimer model, Cy5 at random) [1] was 48% and the % of RuvA-Holliday junction DNA complexes with 1 RuvB dimers bound (fit, dimer model, one Cy5 per labelled dimer) [1] was 35%. The % of RuvA-Holliday junction DNA complexes with 1 RuvBs bound (fit, monomer model) [1] was 10%, the % of RuvA-Holliday junction DNA complexes with 2 RuvB dimers bound (fit, dimer model, Cy5 at random) [1] was 41% and the % of RuvA-Holliday junction DNA complexes with 2 RuvB dimers bound (fit, dimer model, one Cy5 per labelled dimer) [1] was 26%. For the same substance, the % of RuvA-Holliday junction DNA complexes with 2 RuvBs bound (fit, monomer model) [1] was 21%, the % of RuvA-Holliday junction DNA complexes with 3 RuvB dimers bound (fit, dimer model, Cy5 at random) [1] was 0% and the % of RuvA-Holliday junction DNA complexes with 3 RuvB dimers bound (fit, dimer model, one Cy5 per labelled dimer) [1] was 13%. For the same substance, the % of RuvA-Holliday junction DNA complexes with 3 RuvBs bound (fit, monomer model) [1] was 30%, the % of RuvA-Holliday junction DNA complexes with 4 RuvB dimers bound (fit, dimer model, Cy5 at random) [1] was 0% and the % of RuvA-Holliday junction DNA complexes with 4 RuvB dimers bound (fit, dimer model, one Cy5 per labelled dimer) [1] was 0%. It also gave a % of RuvA-Holliday junction DNA complexes with 4 RuvBs bound (fit, monomer model) [1] of 29%, a % of RuvA-Holliday junction DNA complexes with 5 RuvB dimers bound (fit, dimer model, Cy5 at random) [1] of 0% and a % of RuvA-Holliday junction DNA complexes with 5 RuvB dimers bound (fit, dimer model, one Cy5 per labelled dimer) [1] of 0%. It also gave a % of RuvA-Holliday junction DNA complexes with 5 RuvBs bound (fit, monomer model) [1] of 0%, a % of RuvA-Holliday junction DNA complexes with 6 RuvB dimers bound (fit, dimer model, Cy5 at random) [1] of 0% and a % of RuvA-Holliday junction DNA complexes with 6 RuvB dimers bound (fit, dimer model, one Cy5 per labelled dimer) [1] of 0%. For the same substance, the % of RuvA-Holliday junction DNA complexes with 6 RuvBs bound (fit, monomer model) [1] was 0%, the % of Holliday junction DNA (with RuvA) that interacted with RuvB (fit, monomer model) [2] was 92% and the % of RuvA-Holliday junction DNA complexes with 0 RuvB dimers bound (fit, dimer model, Cy5 at random) [2] was 11%. The % of RuvA-Holliday junction DNA complexes with 0 RuvB dimers bound (fit, dimer model, one Cy5 per labelled dimer) [2] was 23%, the % of RuvA-Holliday junction DNA complexes with 0 RuvBs bound (fit, monomer model) [2] was 8% and the % of RuvA-Holliday junction DNA complexes with 1 RuvB dimers bound (fit, dimer model, Cy5 at random) [2] was 36%. The % of RuvA-Holliday junction DNA complexes with 1 RuvB dimers bound (fit, dimer model, one Cy5 per labelled dimer) [2] was 32%, the % of RuvA-Holliday junction DNA complexes with 1 RuvBs bound (fit, monomer model) [2] was 12% and the % of RuvA-Holliday junction DNA complexes with 2 RuvB dimers bound (fit, dimer model, Cy5 at random) [2] was 53%. It also gave a % of RuvA-Holliday junction DNA complexes with 2 RuvB dimers bound (fit, dimer model, one Cy5 per labelled dimer) [2] of 27%, a % of RuvA-Holliday junction DNA complexes with 2 RuvBs bound (fit, monomer model) [2] of 18% and a % of RuvA-Holliday junction DNA complexes with 3 RuvB dimers bound (fit, dimer model, Cy5 at random) [2] of 0%. It also gave a % of RuvA-Holliday junction DNA complexes with 3 RuvB dimers bound (fit, dimer model, one Cy5 per labelled dimer) [2] of 14%, a % of RuvA-Holliday junction DNA complexes with 3 RuvBs bound (fit, monomer model) [2] of 19% and a % of RuvA-Holliday junction DNA complexes with 4 RuvB dimers bound (fit, dimer model, Cy5 at random) [2] of 0%. It also gave a % of RuvA-Holliday junction DNA complexes with 4 RuvB dimers bound (fit, dimer model, one Cy5 per labelled dimer) [2] of 4%, a % of RuvA-Holliday junction DNA complexes with 4 RuvBs bound (fit, monomer model) [2] of 31% and a % of RuvA-Holliday junction DNA complexes with 5 RuvB dimers bound (fit, dimer model, Cy5 at random) [2] of 0%. For the same substance, the % of RuvA-Holliday junction DNA complexes with 5 RuvB dimers bound (fit, dimer model, one Cy5 per labelled dimer) [2] was 0%, the % of RuvA-Holliday junction DNA complexes with 5 RuvBs bound (fit, monomer model) [2] was 12% and the % of RuvA-Holliday junction DNA complexes with 6 RuvB dimers bound (fit, dimer model, Cy5 at random) [2] was 0%. For the same substance, the % of RuvA-Holliday junction DNA complexes with 6 RuvB dimers bound (fit, dimer model, one Cy5 per labelled dimer) [2] was 0%, the % of RuvA-Holliday junction DNA complexes with 6 RuvBs bound (fit, monomer model) [2] was 0% and the % of Holliday junction DNA (with RuvA) that interacted with RuvB (fit, monomer model) [3] was 77%. It also gave a % of RuvA-Holliday junction DNA complexes with 0 RuvB dimers bound (fit, dimer model, Cy5 at random) [3] of 35%, a % of RuvA-Holliday junction DNA complexes with 0 RuvB dimers bound (fit, dimer model, one Cy5 per labelled dimer) [3] of 52% and a % of RuvA-Holliday junction DNA complexes with 0 RuvBs bound (fit, monomer model) [3] of 23%. It also gave a % of RuvA-Holliday junction DNA complexes with 1 RuvB dimers bound (fit, dimer model, Cy5 at random) [3] of 65%, a % of RuvA-Holliday junction DNA complexes with 1 RuvB dimers bound (fit, dimer model, one Cy5 per labelled dimer) [3] of 38% and a % of RuvA-Holliday junction DNA complexes with 1 RuvBs bound (fit, monomer model) [3] of 37%. It also gave a % of RuvA-Holliday junction DNA complexes with 2 RuvB dimers bound (fit, dimer model, Cy5 at random) [3] of 0%, a % of RuvA-Holliday junction DNA complexes with 2 RuvB dimers bound (fit, dimer model, one Cy5 per labelled dimer) [3] of 10% and a % of RuvA-Holliday junction DNA complexes with 2 RuvBs bound (fit, monomer model) [3] of 40%. It also gave a % of RuvA-Holliday junction DNA complexes with 3 RuvB dimers bound (fit, dimer model, Cy5 at random) [3] of 0%, a % of RuvA-Holliday junction DNA complexes with 3 RuvB dimers bound (fit, dimer model, one Cy5 per labelled dimer) [3] of 0% and a % of RuvA-Holliday junction DNA complexes with 3 RuvBs bound (fit, monomer model) [3] of 0%. The % of RuvA-Holliday junction DNA complexes with 4 RuvB dimers bound (fit, dimer model, Cy5 at random) [3] was 0%, the % of RuvA-Holliday junction DNA complexes with 4 RuvB dimers bound (fit, dimer model, one Cy5 per labelled dimer) [3] was 0% and the % of RuvA-Holliday junction DNA complexes with 4 RuvBs bound (fit, monomer model) [3] was 0%. The % of RuvA-Holliday junction DNA complexes with 5 RuvB dimers bound (fit, dimer model, Cy5 at random) [3] was 0%, the % of RuvA-Holliday junction DNA complexes with 5 RuvB dimers bound (fit, dimer model, one Cy5 per labelled dimer) [3] was 0% and the % of RuvA-Holliday junction DNA complexes with 5 RuvBs bound (fit, monomer model) [3] was 0%. The % of RuvA-Holliday junction DNA complexes with 6 RuvB dimers bound (fit, dimer model, Cy5 at random) [3] was 0%, the % of RuvA-Holliday junction DNA complexes with 6 RuvB dimers bound (fit, dimer model, one Cy5 per labelled dimer) [3] was 0% and the % of RuvA-Holliday junction DNA complexes with 6 RuvBs bound (fit, monomer model) [3] was 0%. It also gave a % of Holliday junction DNA (with RuvA) that interacted with RuvB (fit, dimer model of Table 2) [4] of 97%, a % of Holliday junction DNA (with RuvA) that interacted with RuvB (fit, monomer model) [4] of 98% and a % of RuvA-Holliday junction DNA complexes with 0 RuvB dimers bound (fit, dimer model, Cy5 at random) [4] of 3%. It also gave a % of RuvA-Holliday junction DNA complexes with 0 RuvB dimers bound (fit, dimer model, one Cy5 per labelled dimer) [4] of 14%, a % of RuvA-Holliday junction DNA complexes with 0 RuvBs bound (fit, monomer model) [4] of 2% and a % of RuvA-Holliday junction DNA complexes with 1 RuvB dimers bound (fit, dimer model, Cy5 at random) [4] of 24%. The % of RuvA-Holliday junction DNA complexes with 1 RuvB dimers bound (fit, dimer model, one Cy5 per labelled dimer) [4] was 29%, the % of RuvA-Holliday junction DNA complexes with 1 RuvBs bound (fit, monomer model) [4] was 5% and the % of RuvA-Holliday junction DNA complexes with 2 RuvB dimers bound (fit, dimer model, Cy5 at random) [4] was 70%. The % of RuvA-Holliday junction DNA complexes with 2 RuvB dimers bound (fit, dimer model, one Cy5 per labelled dimer) [4] was 33%, the % of RuvA-Holliday junction DNA complexes with 2 RuvBs bound (fit, monomer model) [4] was 8% and the % of RuvA-Holliday junction DNA complexes with 3 RuvB dimers bound (fit, dimer model, Cy5 at random) [4] was 3%. It also gave a % of RuvA-Holliday junction DNA complexes with 3 RuvB dimers bound (fit, dimer model, one Cy5 per labelled dimer) [4] of 19%, a % of RuvA-Holliday junction DNA complexes with 3 RuvBs bound (fit, monomer model) [4] of 31% and a % of RuvA-Holliday junction DNA complexes with 4 RuvB dimers bound (fit, dimer model, Cy5 at random) [4] of 0%. It also gave a % of RuvA-Holliday junction DNA complexes with 4 RuvB dimers bound (fit, dimer model, one Cy5 per labelled dimer) [4] of 4%, a % of RuvA-Holliday junction DNA complexes with 4 RuvBs bound (fit, monomer model) [4] of 37% and a % of RuvA-Holliday junction DNA complexes with 5 RuvB dimers bound (fit, dimer model, Cy5 at random) [4] of 0%. It also gave a % of RuvA-Holliday junction DNA complexes with 5 RuvB dimers bound (fit, dimer model, one Cy5 per labelled dimer) [4] of 1%, a % of RuvA-Holliday junction DNA complexes with 5 RuvBs bound (fit, monomer model) [4] of 14% and a % of RuvA-Holliday junction DNA complexes with 6 RuvB dimers bound (fit, dimer model, Cy5 at random) [4] of 0%. The % of RuvA-Holliday junction DNA complexes with 6 RuvB dimers bound (fit, dimer model, one Cy5 per labelled dimer) [4] was 0% and the % of RuvA-Holliday junction DNA complexes with 6 RuvBs bound (fit, monomer model) [4] was 3%.

“RuvB (from UniProt P0A812 1-336) (enzyme)” showed a ratio of fluorescent spots of Cy3-Holliday junction DNA to nanoholes after addition of 400 nM RuvB with 1 mM ATP and 5 min at 25 °C (about 90% before the addition); loss of spots by branch migration [5] of 16%.
